Data as given in paper PMC12772356.
pKd: −log10 of the molar value.

What was measured:
[1] = tested on: ThHSF1 DBD (Trametes hirsuta AH28-2); assay: FP; details: 5x binding buffer pH 6.8 (25 mM HEPES, 5 mM MgCl2, 150 mM KCl, 1 mM DTT, 5% glycerol), EMSA 100 nM probe, 16 C 30 min, then 37 C 30 min, 6% native PAGE
[2] = target: ThHSF1 full-length;ThHspA1 full-length (Trametes hirsuta AH28-2;Trametes hirsuta AH28-2) (UniProt A0AAD7TN48); assay: FP; details: ThHspA1 added, 5x binding buffer pH 6.8 (25 mM HEPES, 5 mM MgCl2, 150 mM KCl, 1 mM DTT, 5% glycerol), EMSA 100 nM probe, 16 C 30 min, then 37 C 30 min, 6% native PAGE
[3] = tested on: ThHSF1 full-length (Trametes hirsuta AH28-2); assay: FP; details: without ThHspA1, 5x binding buffer pH 6.8 (25 mM HEPES, 5 mM MgCl2, 150 mM KCl, 1 mM DTT, 5% glycerol), EMSA 100 nM probe, 16 C 30 min, then 37 C 30 min, 6% native PAGE
[4] = target: ThHspA1, Hsp70 homolog of Trametes hirsuta AH28-2 (full-length protein) (Trametes hirsuta AH28-2); assay: dynamic light scattering; purified full-length ThHSF1 alone, ThHspA1 alone and the two together (Fig. S10); conditions not given
[5] = target: ThHSF1, heat shock transcription factor of Trametes hirsuta AH28-2 (full-length protein) (Trametes hirsuta AH28-2); assay: ITC; iTC200, 25°C; 50 mM Tris, 500 mM NaCl, pH 7.5; 5 µM ThHspA1 titrated against 1 µM ThHSF1
[6] = target: ThHSF1, heat shock transcription factor of Trametes hirsuta AH28-2 (full-length protein) (Trametes hirsuta AH28-2); assay: ITC; details: natural protein

Substance	pKd [1]	also measured
TACGCCTTAAACTGACTTACATGCAA (double strand) [lacA mutant probe 1]	5.34	
TACGCCTTGAACTGACTTACATGCAA (double strand) [lacA promoter probe WT (26 bp)]	6.02	pKd [2]: 6.17; pKd [3]: 5.99
AGTTCAGTATGTCTTGAAGATTATGCGGTCAGAAAC (double strand) [lacB promoter probe]	5.26	
ThHspA1, Hsp70 homolog of Trametes hirsuta AH28-2 (full-length protein) (natural protein)		stoichiometry N [4]: 6; pKd [5]: 6.98
TACGCCAAGAACTGACTTACATGCAA (double strand) [lacA mutant probe 5]	4.93	
ThHspA1, Hsp70 homolog of Trametes hirsuta AH28-2 (full-length protein)		Ka [6]: 1.16e+07 M⁻¹
TACGCCTAGAACTGACTTACATGCAA (double strand) [lacA mutant probe 4]	5.28	
TACGCCTTATACTGACTTACATGCAA (double strand) [lacA mutant probe 2]	4.83	
TTCGAACGCACCGAAACCATCCCGAACTTGGTCGAA (double strand) [lacF promoter probe]	5.32	
